This note sets out measurements from IntAct's records for PubMed 21331046.

B1: Oxysterols receptor LXR-beta (Homo sapiens), P55055 (parent)
chain: MSSPTTSSLDTPLPGNGPPQPGAPSSSPTVKEEGPEPWPGGPDPDVPGTDEASSACSTDWVIPDPEEEPERKRKKGPAPKMLGHELCRVCGDKASGFHYNVLSCEGCKGFFRRSVVRGGARRYACRGGGTCQMDAFMRRKCQQCRLRKCKEAGMREQCVLSEEQIRKKKIRKQQQESQSQSQSPVGPQGSSSSASGPGASPGGSEAGSQGSGEGEGVQLTAAQELMIQQLVAAQLQCNKRSFSDQPKVTPWPLGADPQSRDARQQRFAHFTELAIISVQEIVDFAKQVPGFLQLGREDQIALLKASTIEIMLLETARRYNHETECITFLKDFTYSKDDFHRAGLQVEFINPIFEFSRAMRRLGLDDAEYALLIAINIFSADRPNVQEPGRVEALQQPYVEALLSYTRIKRPQDQLRFPRMLMKLVSLRTLSSVHSEQVFALRLQDKKLPPLLSEIWDVHE
B2: Oxysterols receptor LXR-beta (Homo sapiens), P55055 (parent)
chain: B1 chain
partner: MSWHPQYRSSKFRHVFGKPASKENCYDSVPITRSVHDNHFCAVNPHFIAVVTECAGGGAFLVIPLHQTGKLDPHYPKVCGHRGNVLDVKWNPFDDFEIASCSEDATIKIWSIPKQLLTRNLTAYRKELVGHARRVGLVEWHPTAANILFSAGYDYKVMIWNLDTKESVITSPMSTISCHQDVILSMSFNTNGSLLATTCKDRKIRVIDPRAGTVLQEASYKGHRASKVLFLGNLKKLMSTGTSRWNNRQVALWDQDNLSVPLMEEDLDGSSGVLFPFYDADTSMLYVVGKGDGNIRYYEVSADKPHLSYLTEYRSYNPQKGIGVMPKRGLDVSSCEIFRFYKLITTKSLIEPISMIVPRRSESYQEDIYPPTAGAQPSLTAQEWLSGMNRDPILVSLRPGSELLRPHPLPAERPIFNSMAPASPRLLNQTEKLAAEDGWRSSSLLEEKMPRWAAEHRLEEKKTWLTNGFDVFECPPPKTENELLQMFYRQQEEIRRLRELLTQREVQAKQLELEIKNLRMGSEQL
B3: Oxysterols receptor LXR-beta (Homo sapiens), P55055 (parent)
chain: B1 chain
partner: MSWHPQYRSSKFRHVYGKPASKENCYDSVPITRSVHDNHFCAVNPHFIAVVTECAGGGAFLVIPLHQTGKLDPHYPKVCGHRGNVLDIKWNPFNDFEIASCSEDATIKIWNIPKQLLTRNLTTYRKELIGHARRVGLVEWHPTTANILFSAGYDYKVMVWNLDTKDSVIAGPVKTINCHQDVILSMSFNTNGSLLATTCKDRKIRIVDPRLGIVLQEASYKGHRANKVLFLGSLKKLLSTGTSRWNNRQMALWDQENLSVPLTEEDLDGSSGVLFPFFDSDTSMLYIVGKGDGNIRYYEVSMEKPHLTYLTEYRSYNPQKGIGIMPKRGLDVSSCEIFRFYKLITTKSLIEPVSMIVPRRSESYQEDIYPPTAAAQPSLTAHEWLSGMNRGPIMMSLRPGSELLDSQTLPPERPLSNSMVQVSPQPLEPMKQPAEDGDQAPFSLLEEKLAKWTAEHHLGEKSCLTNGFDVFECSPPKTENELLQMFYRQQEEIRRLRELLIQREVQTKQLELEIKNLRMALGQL

The variants in the first experiment derive from B1. As to conditions: with senp3_mouse Senp3, Q9EP97.
Sequence of senp3_mouse Senp3, Q9EP97 (Q9EP97 whole entry): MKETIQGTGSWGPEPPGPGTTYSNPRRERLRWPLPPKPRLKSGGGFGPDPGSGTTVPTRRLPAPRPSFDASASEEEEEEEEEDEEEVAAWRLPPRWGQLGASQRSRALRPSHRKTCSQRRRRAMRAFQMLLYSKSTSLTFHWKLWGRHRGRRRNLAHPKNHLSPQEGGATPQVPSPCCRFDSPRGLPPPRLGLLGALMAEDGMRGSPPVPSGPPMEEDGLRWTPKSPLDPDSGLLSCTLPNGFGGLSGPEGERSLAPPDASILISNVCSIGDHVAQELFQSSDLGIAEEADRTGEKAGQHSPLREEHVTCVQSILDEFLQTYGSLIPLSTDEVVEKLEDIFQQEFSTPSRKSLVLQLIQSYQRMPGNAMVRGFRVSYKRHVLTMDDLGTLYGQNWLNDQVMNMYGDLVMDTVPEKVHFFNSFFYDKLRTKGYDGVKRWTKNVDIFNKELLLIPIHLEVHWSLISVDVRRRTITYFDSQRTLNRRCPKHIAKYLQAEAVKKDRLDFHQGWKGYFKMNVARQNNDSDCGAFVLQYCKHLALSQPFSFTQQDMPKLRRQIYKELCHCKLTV
For the variant S426A, the “effect of a mutation on the interaction” value was “disrupting interaction”.

A further experiment covers variants of B2. As to conditions: with cor2a_human CORO2A.
Take K409R;K447R: the “effect of a mutation on the interaction” value was “disrupting interaction”.

In a further experiment the parent is B3. As to conditions: with cor2a_mouse Coro2a.
Turning to S426D, the “effect of a mutation on the interaction” value was “disrupting interaction”.
